# Test results: article PMC2848554, “Topology and Organization of the Salmonella typhimurium Type III Secretion Needle Complex Components” (PLoS Pathogens, 2010)
# B1: PrgK (natural protein)
# chain: CKDKDLLKGLDQEQANEVIAVLQMHNIEANKIDSGKLGYSITVAEPDFTAAVYWIKTYQLPPRPRVEIAQMFPADSLVSSPRAEKARLYSAIEQRLEQSLQTMEGVLSARVHISYDIDAGENGRPPKPVHLSALAVYERGSPLAHQISDIKRFLKNSFADVDYDNISVVLSERSDAQLQAPGTPVKRNSFATSWIVLIILLSVMSAGFGVWYYKNHYARNKKGITADDKAKSSNE
# modifications: lipoprotein; lipidated N-terminal cysteine (Cys-18)
# notes: PrgK, lipoprotein of the SPI-1 needle complex base, S. typhimurium; predicted transmembrane domain 207-227; printed residue numbers include the signal peptide; Stood in the assays as a subunit of the purified needle complex or its substructures; source: endogenous, S. typhimurium strains SB905 (w.t.), SB1171 (ΔinvG) and SB906 complemented with plasmid-borne PrgH; purified within needle complexes
# B2: InvG (natural protein)
# chain: SEKIPVTGSGFVAKDDSLRTFFDAMALQLKEPVIVSKMAARKKITGNFEFHDPNALLEKLSLQLGLIWYFDGQAIYIYDASEMRNAVVSLRNVSLNEFNNFLKRSGLYNKNYPLRGDNRKGTFYVSGPPVYVDMVVNAATMMDKQNDGIELGRQKIGVMRLNNTFVGDRTYNLRDQKMVIPGIATAIERLLQGEEQPLGNIVSSEPPAMPAFSANGEKGKAANYAGGMSLQEALKQNAAAGNIKIVAYPDTNSLLVKGTAEQVHFIEMLVKALDVAKRHVELSLWIVDLNKSDLERLGTSWSGSITIGDKLGVSLNQSSISTLDGSRFIAAVNALEEKKQATVVSRPVLLTQENVPAIFDNNRTFYTKLIGERNVALEHVTYGTMIRVLPRFSADGQIEMSLDIEDGNDKTPQSDTTTSVDALPEVGRTLISTIARVPHGKSLLVGGYTRDANTDTVQSIPFLGKLPLIGSLFRYSSKNKSNVVRVFMIEPKEIVDPLTPDASESVNNILKQSGAWSGDDKLQKWVRVYLDRGQEAIK
# notes: InvG, secretin of the SPI-1 needle complex (outer rings and neck), S. typhimurium; processed InvG starts at Ser-25; printed residue numbers include the signal peptide; Stood in the assays as a subunit of the purified needle complex; source: endogenous, S. typhimurium strain SB905 (w.t.) and SB906 complemented with plasmid-borne PrgH; purified within needle complexes
# B3: PrgH mutant lacking its last 4 amino acids (PrgH^Δ4) (domain or fragment)
# chain: METSKEKTITSPGPYIVRLLNSSLNGCEFPLLTGRTLFVVGQSDALTASGQLPDIPADSFFIPLDHGGVNFEIQVDTDATEIILHELKEGNSESRSVQLNTPIQVGELLILIRPESEPWVPEQPEKLETSAKKNEPRFKNGIVAALAGFFILGIGTVGTLWILNSPQRQAAELDSLLGQEKERFQVLPGRDKMLYVAAQNERDTLWARQVLARGDYDKNARVINENEENKRISIWLDTYYPQLAYYRIHFDEPRKPVFWLSRQRNTMSKKELEVLSQKLRALMPYADSVNITLMDDVTAAGQAEAGLKQQALPYSRRNHKGGVTFVIQGALDDVEILRARQFVDSYYRTWGGRYVQFAIELKDDWLKGRSFQYGAEGYIKMSPGHWYF
# notes: PrgH of S. typhimurium without its last 4 amino acids; also called C-terminal truncated PrgH; source: S. typhimurium SB906 (chromosomal ΔprgH) complemented with a pWSK29 plasmid, natural promoter; purified within needle complexes; copies: 24
# B4: PrgH (natural protein)
# chain: METSKEKTITSPGPYIVRLLNSSLNGCEFPLLTGRTLFVVGQSDALTASGQLPDIPADSFFIPLDHGGVNFEIQVDTDATEIILHELKEGNSESRSVQLNTPIQVGELLILIRPESEPWVPEQPEKLETSAKKNEPRFKNGIVAALAGFFILGIGTVGTLWILNSPQRQAAELDSLLGQEKERFQVLPGRDKMLYVAAQNERDTLWARQVLARGDYDKNARVINENEENKRISIWLDTYYPQLAYYRIHFDEPRKPVFWLSRQRNTMSKKELEVLSQKLRALMPYADSVNITLMDDVTAAGQAEAGLKQQALPYSRRNHKGGVTFVIQGALDDVEILRARQFVDSYYRTWGGRYVQFAIELKDDWLKGRSFQYGAEGYIKMSPGHWYFPSPL
# notes: PrgH, inner ring protein of the SPI-1 type III secretion needle complex, S. typhimurium; wild-type chromosomal allele; the N-terminal amino group of Met-1 (peptide METSK) was cross-linked; predicted transmembrane domain 142-162; Stood in the assays as a subunit of the whole purified needle complex or of the ΔinvG substructure, not as an isolated protein; source: endogenous, S. typhimurium strains …
# Key:
# [1] = biological target: B3; test: negative-stain electron microscopy, single particle analysis; purified needle complexes incubated in 10 mM sodium phosphate pH 10.4 (legend: pH 10.5), 0.5 M NaCl, 0.1% LDAO, 15 min at 37°C, sucrose gradient, then negative stain (PTA or NanoVan); no symmetry imposed, rotational cross-correlation; conditions: both partners purified
# [2] = biological target: the molecule itself; test: as above
# PrgH = biological target: B4; test: cross-linking; sucrose gradient purified whole needle complexes (about 1 mg/ml, w.t. strain SB905) on ice with 200 µM BS2G-d0/d4 for 30 or 60 min; single particles re-purified on sucrose gradients; tryptic digestion in solution, high-resolution mass spectrometry, xQuest score above 15; conditions: both partners purified
# [3] = biological target: the molecule itself; test: cryo electron microscopy, single particle class averages; purified complexes from wild type and ΔinvG strains, vitrified; two-dimensional class averages and their density difference
# InvG [4] = biological target: B2; test: negative-stain electron microscopy; purified needle complexes of the PrgH^Δ4 strain, without high pH treatment; negative stain; conditions: both partners purified
# InvG [5] = biological target: B2; test: cross-linking; sucrose gradient purified whole needle complexes (about 1 mg/ml, w.t. strain SB905) on ice with 200 µM BS2G-d0/d4 for 30 or 60 min; single particles re-purified on sucrose gradients; tryptic digestion in solution, high-resolution mass spectrometry, xQuest score above 15; conditions: both partners purified
binder,measurement,setting,value
B1,binding result,[1],binds
same,stoichiometry N,[2],24
same,binding result,PrgH,binds
B2,binding result,[3],binds
B3,binding result,InvG [4],binds
same,stoichiometry N,[2],24
B4,binding result,InvG [5],binds
